Key:
[1] = biological target: T1, mTfR-1 F224A on Expi293 cells (mouse, UniProt Q62351 1-763); experiment: FACS, transfected Expi293 cells; mutant poorly expressed
T1 construct: whole, on cells
Description: (§1) Transfected Expi293 cells were harvested and 2×10⁵ cells were transferred into V-bottom 96-well plate for staining. The cells were blocked in PBS containing 1% BSA (FACS buffer) for 10 min on ice, centrifuged to remove the buffer and 1 μl of 8D3-hFc formatted antibody, Clone C-hFc or Clone C variants 18 and 13 (Table 1), all at 1 mg/ml, was added to the wells. The cells were co-stained with mouse Tf-Alexa647 (Jackson ImmunoResearch). After 30 minutes on ice, the cells were washed and incubated with anti-hFc-PE (eBioscience) for 20 minutes on ice, washed again and resuspended in […] of FACS buffer containing 5 μl of propidium iodide (PI) to exclude dead cells from the analysis. The percentage of double-positive cells that stained with mTf and the tested antibody was determined on a CytoFlex cytometer (Beckman Coulter). The percentage of cells in the double positive quadrant (Q2) for WT mTfR-1 was used for normalization.

[2] = biological target: T2, mTfR-1 L256A on Expi293 cells (mouse, UniProt Q62351 1-763); experiment: as above
T2 construct: whole, on cells
Description: as §1

[3] = biological target: T3, mTfR-1 I334A on Expi293 cells (mouse, UniProt Q62351 1-763); experiment: as above
T3 construct: whole, on cells
Description: as §1

[4] = biological target: T4, mTfR-1 A278T on Expi293 cells (mouse, UniProt Q62351 1-763); experiment: as above
T4 construct: whole, on cells
Description: as §1

[5] = biological target: T5, mTfR-1 L331A on Expi293 cells (mouse, UniProt Q62351 1-763); experiment: as above
T5 construct: whole, on cells
Description: as §1

[6] = biological target: T6, mTfR-1 I192A on Expi293 cells (mouse, UniProt Q62351 1-763); experiment: as above
T6 construct: whole, on cells; also called 1192A
Description: as §1

[7] = biological target: T7, mTfR-1 V379A on Expi293 cells (mouse, UniProt Q62351 1-763); experiment: as above
T7 construct: whole, on cells
Description: as §1

[8] = biological target: T8, mTfR-1 N381A on Expi293 cells (mouse, UniProt Q62351 1-763); experiment: as above
T8 construct: whole, on cells
Description: as §1

[9] = biological target: T9, mTfR-1 N201A on Expi293 cells (mouse, UniProt Q62351 1-763); experiment: as above
T9 construct: whole, on cells
Description: as §1

[10] = biological target: T10, WT mTfR-1 expressed on Expi293 cells (mouse, UniProt Q62351 1-763); experiment: FACS, transfected Expi293 cells
T10 construct: whole, on cells
Description: as §1

[11] = biological target: T11, mTfR-1 V382A on Expi293 cells (mouse, UniProt Q62351 1-763); experiment: FACS, transfected Expi293 cells
T11 construct: whole, on cells
Description: as §1

[12] = biological target: T12, mTfR-1 P335A on Expi293 cells (mouse, UniProt Q62351 1-763); experiment: FACS, transfected Expi293 cells
T12 construct: whole, on cells
Description: as §1

[13] = biological target: T13, mTfR-1 N277A on Expi293 cells (mouse, UniProt Q62351 1-763); experiment: FACS, transfected Expi293 cells
T13 construct: whole, on cells
Description: as §1

[14] = biological target: T14, mTfR-1 Q200A on Expi293 cells (mouse, UniProt Q62351 1-763); experiment: FACS, transfected Expi293 cells
T14 construct: whole, on cells
Description: as §1

[15] = biological target: T15, mTfR-1 S326A on Expi293 cells (mouse, UniProt Q62351 1-763); experiment: FACS, transfected Expi293 cells
T15 construct: whole, on cells
Description: as §1

[16] = biological target: T16, mTfR-1 K384A on Expi293 cells (mouse, UniProt Q62351 1-763); experiment: FACS, transfected Expi293 cells
T16 construct: whole, on cells
Description: as §1

[17] = biological target: T17, mTfR-1 K195A on Expi293 cells (mouse, UniProt Q62351 1-763); experiment: FACS, transfected Expi293 cells
T17 construct: whole, on cells
Description: as §1

[18] = biological target: T18, mTfR-1 N333A on Expi293 cells (mouse, UniProt Q62351 1-763); experiment: FACS, transfected Expi293 cells
T18 construct: whole, on cells
Description: as §1

[19] = biological target: T19, mTfR-1 G254A on Expi293 cells (mouse, UniProt Q62351 1-763); experiment: FACS, transfected Expi293 cells
T19 construct: whole, on cells
Description: as §1

[20] = biological target: T20, mTfR-1 S275A on Expi293 cells (mouse, UniProt Q62351 1-763); experiment: FACS, transfected Expi293 cells
T20 construct: whole, on cells
Description: as §1

[21] = biological target: T21, recombinant mouse TfR-1, His-tagged (Sino Biological 50741-M07H) (mouse, UniProt Q62351 89-763); experiment: SPR, His-captured TfR1
T21 construct: bought; His-tagged; also called mTfR1; mTfR-1
Description: (§2) Detailed binding kinetic analyses were performed to gain a better understanding of the relationship between affinity and brain penetration of the Clone C variants. Biacore surface plasmon resonance (SPR) analysis using immobilised mouse and human TfR-1 was performed for selected clones (Table 2).
(§3) Binding kinetics of VNAR-Fcs was determined by surface plasmon resonance (Biacore T200, GE Healthcare). CMS chips were coated with anti-His antibodies (His Capture Kit, GE Healthcare) as recommended by the manufacturer and human or mouse his-tagged TfR1 (SinoBiological) at 10 ug/mL in HBS-EP+ (GE Healthcare) was captured at flow rate 10 ul/min (contact time 120 s). […] A flow cell without TfR1 captured served as a reference. Sensorgrams were fitted and kinetic constants were determined using Biacore T200 Evaluation software. Chips were regenerated in 10 mM Glycine-HCl, pH 1.5 (contact time: 120 s at flow rate 30 ul/min).

[22] = biological target: T22, recombinant human TfR-1, His-tagged (Sino Biological 11020-H07H) (human, UniProt P02786 89-760); experiment: SPR, His-captured TfR1
T22 construct: bought; His-tagged; also called hTfR1; hTfR-1
Description: as §2, §3

T18 sequence (Q62351 whole entry N333A): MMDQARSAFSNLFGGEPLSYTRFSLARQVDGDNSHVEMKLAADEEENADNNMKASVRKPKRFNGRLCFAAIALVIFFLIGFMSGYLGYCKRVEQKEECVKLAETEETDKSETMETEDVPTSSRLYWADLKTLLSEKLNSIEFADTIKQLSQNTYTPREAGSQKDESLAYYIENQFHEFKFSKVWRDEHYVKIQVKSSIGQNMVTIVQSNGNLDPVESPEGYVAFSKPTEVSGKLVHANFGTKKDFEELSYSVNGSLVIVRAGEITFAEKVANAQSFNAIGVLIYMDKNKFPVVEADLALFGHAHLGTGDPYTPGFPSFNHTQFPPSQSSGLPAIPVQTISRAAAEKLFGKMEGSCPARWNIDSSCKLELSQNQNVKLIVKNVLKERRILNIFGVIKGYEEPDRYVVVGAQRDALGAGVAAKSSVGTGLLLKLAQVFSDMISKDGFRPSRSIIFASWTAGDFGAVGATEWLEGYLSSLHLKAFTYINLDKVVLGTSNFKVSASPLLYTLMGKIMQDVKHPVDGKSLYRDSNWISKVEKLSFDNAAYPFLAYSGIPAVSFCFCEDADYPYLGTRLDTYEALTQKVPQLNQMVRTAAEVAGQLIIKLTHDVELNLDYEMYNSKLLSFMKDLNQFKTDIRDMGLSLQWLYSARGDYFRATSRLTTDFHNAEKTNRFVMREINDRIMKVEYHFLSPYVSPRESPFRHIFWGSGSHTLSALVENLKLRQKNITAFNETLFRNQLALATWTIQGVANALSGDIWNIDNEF
T20 sequence (Q62351 whole entry S275A): as the sequence (Q62351 whole entry N333A) above, with S275A, A333N counted along it
T13 sequence (Q62351 whole entry N277A): as the sequence (Q62351 whole entry N333A) above, with N277A, A333N counted along it
T4 sequence (Q62351 whole entry A278T): as the sequence (Q62351 whole entry N333A) above, with A278T, A333N counted along it
T2 sequence (Q62351 whole entry L256A): as the sequence (Q62351 whole entry N333A) above, with L256A, A333N counted along it
T3 sequence (Q62351 whole entry I334A): as the sequence (Q62351 whole entry N333A) above, with A333N, I334A counted along it
T1 sequence (Q62351 whole entry F224A): as the sequence (Q62351 whole entry N333A) above, with F224A, A333N counted along it
T8 sequence (Q62351 whole entry N381A): as the sequence (Q62351 whole entry N333A) above, with A333N, N381A counted along it
T22 sequence (P02786 89-760 limits assumed): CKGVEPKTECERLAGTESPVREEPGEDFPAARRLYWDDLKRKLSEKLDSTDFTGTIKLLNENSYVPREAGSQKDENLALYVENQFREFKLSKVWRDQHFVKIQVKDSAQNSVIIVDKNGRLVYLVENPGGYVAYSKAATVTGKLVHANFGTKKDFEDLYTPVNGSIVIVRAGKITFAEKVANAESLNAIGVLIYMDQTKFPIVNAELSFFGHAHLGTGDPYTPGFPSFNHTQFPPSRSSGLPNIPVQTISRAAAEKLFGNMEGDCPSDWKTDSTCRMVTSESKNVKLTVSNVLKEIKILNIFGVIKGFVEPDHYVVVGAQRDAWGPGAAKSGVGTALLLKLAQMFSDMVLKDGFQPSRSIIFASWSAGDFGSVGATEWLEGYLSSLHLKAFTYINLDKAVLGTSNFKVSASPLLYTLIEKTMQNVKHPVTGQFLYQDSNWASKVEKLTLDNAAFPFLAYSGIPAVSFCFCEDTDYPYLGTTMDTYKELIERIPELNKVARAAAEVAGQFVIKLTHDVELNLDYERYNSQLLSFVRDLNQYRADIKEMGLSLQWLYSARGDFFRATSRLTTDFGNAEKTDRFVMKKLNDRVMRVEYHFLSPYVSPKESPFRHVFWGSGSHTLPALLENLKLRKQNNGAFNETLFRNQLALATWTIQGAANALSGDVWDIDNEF
T17 sequence (Q62351 whole entry K195A): as the sequence (Q62351 whole entry N333A) above, with K195A, A333N counted along it
T21 sequence (Q62351 89-763 limits assumed, stated change not applied): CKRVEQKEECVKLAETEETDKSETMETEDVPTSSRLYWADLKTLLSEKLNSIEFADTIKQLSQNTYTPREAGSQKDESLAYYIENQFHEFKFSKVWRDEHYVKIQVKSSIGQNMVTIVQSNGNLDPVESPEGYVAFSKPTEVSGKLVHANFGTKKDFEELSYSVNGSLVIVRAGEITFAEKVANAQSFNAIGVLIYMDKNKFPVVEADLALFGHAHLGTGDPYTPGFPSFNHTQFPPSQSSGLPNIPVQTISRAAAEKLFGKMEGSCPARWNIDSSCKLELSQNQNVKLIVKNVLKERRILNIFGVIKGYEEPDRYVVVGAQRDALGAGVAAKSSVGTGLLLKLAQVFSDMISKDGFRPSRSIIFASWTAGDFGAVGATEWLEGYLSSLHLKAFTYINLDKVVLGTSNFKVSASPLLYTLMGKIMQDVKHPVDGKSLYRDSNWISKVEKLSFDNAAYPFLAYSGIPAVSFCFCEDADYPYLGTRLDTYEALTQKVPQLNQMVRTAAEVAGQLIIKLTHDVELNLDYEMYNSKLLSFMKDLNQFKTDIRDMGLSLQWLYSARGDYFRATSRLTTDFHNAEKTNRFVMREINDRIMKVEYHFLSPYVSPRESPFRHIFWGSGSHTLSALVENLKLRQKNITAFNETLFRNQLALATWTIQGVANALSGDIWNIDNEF
T10 sequence (Q62351 whole entry): as the sequence (Q62351 whole entry N333A) above, with A333N counted along it
T7 sequence (Q62351 whole entry V379A): as the sequence (Q62351 whole entry N333A) above, with A333N, V379A counted along it
T12 sequence (Q62351 whole entry P335A): as the sequence (Q62351 whole entry N333A) above, with A333N, P335A counted along it
T14 sequence (Q62351 whole entry Q200A): as the sequence (Q62351 whole entry N333A) above, with Q200A, A333N counted along it
T9 sequence (Q62351 whole entry N201A): as the sequence (Q62351 whole entry N333A) above, with N201A, A333N counted along it
T5 sequence (Q62351 whole entry L331A): as the sequence (Q62351 whole entry N333A) above, with L331A, A333N counted along it
T15 sequence (Q62351 whole entry S326A): as the sequence (Q62351 whole entry N333A) above, with S326A, A333N counted along it
T19 sequence (Q62351 whole entry G254A): as the sequence (Q62351 whole entry N333A) above, with G254A, A333N counted along it
T11 sequence (Q62351 whole entry V382A): as the sequence (Q62351 whole entry N333A) above, with A333N, V382A counted along it
T6 sequence (Q62351 whole entry I192A): as the sequence (Q62351 whole entry N333A) above, with I192A, A333N counted along it
T16 sequence (Q62351 whole entry K384A): as the sequence (Q62351 whole entry N333A) above, with A333N, K384A counted along it

Binder	% double-positive cells vs WT [1]	% double-positive cells vs WT [2]	% double-positive cells vs WT [3]	% double-positive cells vs WT [4]	% double-positive cells vs WT [5]	% double-positive cells vs WT [6]	% double-positive cells vs WT [7]	% double-positive cells vs WT [8]	% double-positive cells vs WT [9]	% double-positive cells vs WT [10]	% double-positive cells vs WT [11]	% double-positive cells vs WT [12]	% double-positive cells vs WT [13]	% double-positive cells vs WT [14]	% double-positive cells vs WT [15]	% double-positive cells vs WT [16]	% double-positive cells vs WT [17]	% double-positive cells vs WT [18]	% double-positive cells vs WT [19]	% double-positive cells vs WT [20]	further results
8D3 antibody (anti-mouse TfR-1 control; 8D3-hFc formatted antibody) (antibody, V domains shown) VH: EVQLVESGGGLVQPGNSLTLSCVASGFTFSNYGMHWIRQAPKKGLEWIAMIYYDSSKMNYADTVKGRFTISRDNSKNTLYLEMNSLRSEDTAMYYCAVPTSHYVVDVWGQGVSVTVSS VL: DIQMTQSPASLSASLEEIVTITCQASQDIGNWLAWYQQKPGKSPQLLIYGATSLADGVPSRFSGSRSGTQFSLKISRVQVEDIGIYYCLQAYNTPWTFGGGTKLELK	0%	13%	0%	45%	0%	13%	0%	26%	1%	100%	82%	94%	56%	66%	31%	35%	63%	90%	58%	70%	–
Clone C VNAR-hFc fusion (Fc fusion, not shown: a dimerising Fc or GST, bivalent VNAR-Fc; also called Clone C-hFc) ARVDQTPQTITKETGESLTINCVLRDSNCALSSTYWYRKKSGSTNEENISKGGRYVETVNSGSKSFSLRINDLTVEDSGTYRCNVVQYPSYNNYFWCDVYGDGTAVTVN	0%	–	0%	25%	0%	61%	0%	32%	0%	100%	357%	169%	137%	90%	136%	187%	236%	213%	35%	97%	Kd [21]: 0.892 nM; koff [21]: 0.000191 s⁻¹; kon [21]: 214000 M⁻¹ s⁻¹; Kd [22]: 0.604 nM; koff [22]: 0.000145 s⁻¹; kon [22]: 240000 M⁻¹ s⁻¹

The next lines start with results.

% double-positive cells vs WT [1]	% double-positive cells vs WT [2]	% double-positive cells vs WT [3]	% double-positive cells vs WT [4]	% double-positive cells vs WT [5]	% double-positive cells vs WT [6]	% double-positive cells vs WT [7]	% double-positive cells vs WT [8]	% double-positive cells vs WT [9]	% double-positive cells vs WT [10]	% double-positive cells vs WT [11]	% double-positive cells vs WT [12]	% double-positive cells vs WT [13]	% double-positive cells vs WT [14]	% double-positive cells vs WT [15]	% double-positive cells vs WT [16]	% double-positive cells vs WT [17]	% double-positive cells vs WT [18]	% double-positive cells vs WT [19]	% double-positive cells vs WT [20]	Binder	further results
0%	0%	0%	12%	0%	–	0%	11%	0%	100%	111%	75%	84%	72%	77%	85%	–	94%	22%	54%	Clone C variant 13 VNAR-hFc (Fc fusion, not shown: a dimerising Fc or GST, also called Clone C v13; Clone C var; 13) ARVDQTPQTITKETGESLTINCVLRDSNCALSSTYWYRKKSGSTNEENISKGGRYVETVNSGSKSFSLRINDLTVEDSGTYRCNVVQYPQQDNYFWCDVYGDGTAVTVN	Kd [21]: 0.165 nM; koff [21]: 4.09e-05 s⁻¹; kon [21]: 248000 M⁻¹ s⁻¹; Kd [22]: 0.574 nM; koff [22]: 0.00017 s⁻¹; kon [22]: 297000 M⁻¹ s⁻¹
0%	0%	0%	21%	0%	18%	0%	0%	0%	100%	241%	138%	155%	171%	129%	147%	150%	161%	32%	136%	Clone C variant 18 VNAR-hFc (Fc fusion, not shown: a dimerising Fc or GST, also called Clone C v18; Clone C var; 18) ARVDQTPQTITKETGESLTINCVLRDSNCALSSTYWYRKKSGSTNEENISKGGRYVETVNSGSKSFSLRINDLTVEDSGTYRCNVVQYPQYPNYFWCDVYGDGTAVTVN	Kd [21]: 0.863 nM; koff [21]: 0.000269 s⁻¹; kon [21]: 312000 M⁻¹ s⁻¹; Kd [22]: 0.314 nM; koff [22]: 0.000113 s⁻¹; kon [22]: 360000 M⁻¹ s⁻¹
